From patent publication US20210246195A1 (CZ BIOHUB SF, published 2021)

Biological target: T1, BSA (UniProt P02769 25-607)
T1 construct: also called bovine serum albumin; immobilized BSA
Assay: indirect ELISA heat map, hIgG subtracted

T1 sequence (P02769 25-607 limits assumed): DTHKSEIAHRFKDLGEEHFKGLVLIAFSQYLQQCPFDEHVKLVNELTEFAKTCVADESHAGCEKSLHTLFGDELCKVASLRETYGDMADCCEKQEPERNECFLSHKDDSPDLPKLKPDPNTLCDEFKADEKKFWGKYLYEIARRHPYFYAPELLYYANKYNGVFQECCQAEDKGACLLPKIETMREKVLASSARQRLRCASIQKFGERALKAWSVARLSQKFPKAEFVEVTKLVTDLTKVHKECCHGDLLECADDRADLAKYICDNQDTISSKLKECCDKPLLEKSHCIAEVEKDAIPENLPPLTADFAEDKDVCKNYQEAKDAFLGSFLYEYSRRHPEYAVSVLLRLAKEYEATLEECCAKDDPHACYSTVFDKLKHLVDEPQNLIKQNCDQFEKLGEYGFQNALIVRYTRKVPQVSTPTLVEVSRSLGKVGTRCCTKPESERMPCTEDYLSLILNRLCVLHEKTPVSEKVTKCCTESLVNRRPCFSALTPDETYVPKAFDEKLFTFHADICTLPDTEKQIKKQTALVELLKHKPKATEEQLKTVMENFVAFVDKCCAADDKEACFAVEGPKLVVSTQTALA

Binder | binding result
PA01P2E08 (antibody, human IgG1, V domains shown) VH: QVQLVESGGGVVQPGRSLRLSCVASGFDLNAYGMHWVRQAPGKGLDWVAATSRGGTKKYYADSVKGRFTISRDVSKNTLYLQMGSLRTGDTAIYYCGVGMEDVFDIWGQGTMVTVSP VL: QSVLTQPPSVSAAPGQKVTISCSENNSNIGNRNVSWYQQLPGKAPKLFIYDNNERPSGIPARFSGSKSGTSATLVITGLQTGDEADYYCGTWDRSLSVWVFGGGTKLTVL | no binding (tested: 2 ng/µL)
PA01P2D10 (antibody, human IgG1, V domains shown) VH: EVLLLESGGGLVHPGGTLRLSCAASGFTFRNSAMTWVRQAPGKGLEWVSSIGGSGAKSYYADSVKGRFTISRDNSKNTLYLEMNTLRVDDTAIYYCAKDQLNCYDLWSGDYCWFDTWGQGTLVTVSS VL: not shown | no binding (tested: 2 ng/µL)
PA01P2E07 (antibody, V domains shown, subject PA01; also called Clone PA01P2E07) VH: QLQLQESGSGLVKPSQTLSLTCAVSGGSITSGTYSWTWIRQSPEKGLEWIGYIYYTGSTYYNPSLGRRVTISGDTSNNEFSLNLKSVTAADTAVYYCARGIHRGGVLDFWGQGILVTVSS VL: EIVLTQSPATLPLSPGERATLSCRASQSLDKYLAWYQQKPGQAPRLLIYDTSKRATGIPARFSGSGSGTDFTLTISSLEPEDFAVYFCQQRNNWPPYTFGQGTKVEMK | no binding (tested: 2 ng/µL)
PA01P2C12 (antibody, V domains shown, subject PA01; also called Clone PA01P2C12) VH: HVQLQESGPGLVKSSETLSLTCNVSSDSFSDHYWSWVRQPAGKGLQWLGRIYNTGTTTYNPSLNRRITMSVDTSKNQFSLRLTSVTAADTAVYYCAARHYHYDKTIWGQGTLVTVSS VL: NFMLTQPHSVSESPGKTVTISCTRSSGSIASNYVQWYQQRPGSPPTTVIYEDNQRPSGVPDRFSGSIDSSSNSASLTISGLKPEDEADFYCQSYDSDDREVFGGGTRLTVL | no binding (tested: 2 ng/µL)
PA01P2D04 (antibody, human IgG1, V domains shown) VH: QVQLLQSGPEVKQPGASVQVSCQTSGYTFTGYYIHWVRQAPGQGLEWVGWINPNRGHTNYGPAFQGRLTLTADTSSSTAYLELTRLRSDDTAVYYCARDRLTGGRDAFEIWGQGTMLIVSS VL: DIQLTQSPSSLSASVGDRVTITCRASQSISSYLNWYQQKPGKAPKLLISVASSLQDGVPPRFSGSRSGTEFTLTISSLQPEDFAIYYCQQSYSLSWTFGQGTKVEIK | no binding (tested: 2 ng/µL)
PA01P2B12 (antibody, human IgG1, V domains shown) VH: QVQLVQSGAEVKQPGASVQVACQTSGYIFTAYYIHWLRQAPGQGLEWVGWINPNRGHTNYAPGFQGRLTLTADTSSSTAYLALTRLASDDTAVYYCARDRLTGGRDAFEIWGQGTMLIVSS VL: DIQLTQSPSSLSASVGDRVTITCRASQSVSSYLNWYQQKPGEAPKLLISAASSLQDGVPPRFSGSRSGTEFTLTISSLQPEDFAIYYCQQSYSLWWTFGQGTKVEIK | no binding (tested: 2 ng/µL)
PA01P1D06 (antibody, V domains shown, subject PA01; also called Clone PA01P1D06) VH: QVTLRESGPALVEVTQTVTLTCNFSGFSLHTRGMYVNWIRQPPGKALEWLAVINWDDDKYYTPSLKNRLTISKDTSKNQVVLTMTNMDPVDTATYYCARTDYGGYGPEGFDYWGQGTLVTVSS VL: EIVMTQSPATLSVSPGESATLSCRASQSVRSNLAWYQQKPGQAPRLLIYGASTRAPGVPARFTGSESGREFTLTISSLQSEDFAVYYCQQYNNWPPYTFGQGTKLEIK | no binding (tested: 2 ng/µL)
PA01P2B09 (antibody, V domains shown, subject PA01; also called Clone PA01P2B09) VH: QVEVVESGGGVVQPGKSLRLSCAASGFKFNVYGIHWVRQAPGKGLEWVAVVWYDGSNKYYADSVKGRFTISRDNSKNTTYLQMDSLRVDDTAVYYCARELQYSNYDYFYAMDVWGQGTTVTVSS VL: DIQMTQSPPSLSASVGDRVTITCRASQDIDNYLVWFQQKPGRAPKSLIYAASSLQSGVPSKFSGSGSGTEFTLTISSLQPEDFATYYCQQYNSFPYTFGQGTKLEIK | no binding (tested: 2 ng/µL)
PA01P2G07 (antibody, V domains shown, subject PA01; also called Clone PA01P2G07) VH: QVLLVQSGSEVKNPGASIRVSCKTSGYMFTNNGIAWVREVPTQGLEWMGWISTYSGATHYAPNLHGRITMTADTSASTAYMELRSLQSGDTGVYYCARLWFGKLGLDFWGQGTQVTVSS VL: QSVLTQPPSASGTPGQRVIISCSGSTSNIGTKTVNWYQHLPGTAPKLLIYNNNQRPSGVPDRFSGSKSGTSASLTISGLQSEDEADYYCAAWDDSLNGRGLFGPGTKVTVL | no binding (tested: 2 ng/µL)
PA01P4C11 (antibody, V domains shown, subject PA01; also called Clone PA01P4C11) VH: EVQLLESGGGLLQLGGSLRLSCAASGFTFSSYVMSWVRQAPGKGLEWVSLITGSGGNTYYADSVKGRFTISRDNSKNTLFLQMNSLRVEDTAIYYCVKTDFYDSSGYYFHDAFHIWGQGTMVTVSS VL: QTVVTQEPSLTVSPGGTVTLTCASSTGSVTSGYYPNWFQQKPGQAPRTLIYGTSNKHSWTPARFSGSLLGGKAALTLSDVQPEDEAEYYCLLYYGGAYVFGTGTKVTVL | no binding (tested: 2 ng/µL)
PA01P2D11 (antibody, V domains shown, subject PA01; also called Clone PA01P2D11) VH: QLQLQESGSGLVKPSQTLSLTCDVSGDSMNDDVYTWSWIRQPPGRGLEWIGYISHTGNTFYNSSLQSRVTMSVDTSKNQFSLKLSSVTIADTAVYYCARLTFLFSAPFSSFNWFDPWGQGILVTVSS VL: QSVLTQPPSVSGAPGQTITISCTGTPSNFGADYDVHWYQQRPGTAPKLLIFADKHRPSGVPDRFSGSRSGTSASLAISGLQAEDEADYYCQSYDSGVVGLWVFGGGTKVTVL | no binding (tested: 2 ng/µL)
PA01P2B05 (antibody, human IgG1, V domains shown) VH: EVQLLESGGGLVQPGGSLRLSCVASGFTFSGHAMSWVRQAPGKGLEWVSGISGSGGSTYYADSVKGRFTISRDNSKKTVDLQMNNLRAEDTAIYYCAKDLHFDTSGYYYSMIFDYWGQGTLVPVSS VL: QSALAQPASVSGSPGQSITISCTGTSSDISDYNYVSWYQQHPGKAPKLILYDVNNRPSGVSSRFSGSKSGDTASLTISGLQPEDEADYYCSSYTSTKIFGGGTKVTVL | no binding (tested: 2 ng/µL)
PA01P2E05 (antibody, V domains shown, subject PA01; also called Clone PA01P2E05) VH: QVQLVESGGGFVKPGGSLRLSCAVSGFTFSDYYMSWVRQAPGKGLEWLSHISSDGSDTNYADSVKGRFSISRDNAKNSVFLQMNTLRVEDTAVYYCARNALTNAYDMSGFRNWGQGTLVTVSS VL: NFMLTQPHSVSESPGKTVILSCTRSSGSIASNYVRWYQQRPGSAPTTVIYEDSRRPSSVPDRFSGSIDSSSNSASLTISGLKTEDEADYYCQSFDSSSRKVVFGGGTKLTVL | no binding (tested: 2 ng/µL)
PA01P2C09 (antibody, V domains shown, subject PA01; also called Clone PA01P2C09) VH: QVDLVESGGGYVKSGGSLRLSCAASGFRFSDYYMSWVRQAPGKGLEWLSHISSDSSDTNYADSVKGRFSISRDNAKNSVFLQMNTLRAEDTAVYYCARNALTNAYDMSGFRNWGQGILVTVSS VL: NFMLTQPHSVSESPGKTVILSCTRSSGSIATNYVRWYQQRPGSAPTTVIYEDSRRPSSVPDRFSGSIDSSSNSASLTISGLRTEDEADYYCQSFDTSSRKVVFGGGTKLTVL | no binding (tested: 2 ng/µL)

Further lines, results first:

binding result | Binder
no binding (tested: 2 ng/µL) | PA01P2C04 (antibody, V domains shown, subject PA01; also called Clone PA01P2C04) VH: QVQLQESGPGLVKPSETLSLTCSVSGGSISSHYWSWIRQPPGRGLEWIAYISYSGRTKYNPSLKSRVTISEDTSKNQFSLKLSSVTPADTAVYYCARIYGDYGPFIDYWGQGTLVTVSS VL: DIQMTQSPSSLSASVGDRVTITCRASQTISTYLNWYQQKPGTAPMLLIYGAYSLHSGVPSRFSGSGSGTDFTLTISSLQPEDFATYYCQQSSSLPLTFGGGTKVEIK
no binding (tested: 2 ng/µL) | PA01P2B04 (antibody, V domains shown, subject PA01; also called Clone PA01P2B04) VH: QVQLQQWGAGLLKPSETLSLTCTVIGTSFSNYYWSWIRQPPGKGLQWIGEITHSDSANYNPSLKSRVIISIDSSKNQLSLNLSSVTAADTAVYYCARGSKDYYDRSTFSWFDPWGQGTLVTVSS VL: EIVMTQSPATLSVSPGERATLSCRASQNISNKLAWYQQKPGQAPRLLIYDASTRATGVPARFSCSVSGTAFTLTINRLQSEDFAVYYCQQYYYWPPPYTFGHGTKLEIK
no binding (tested: 2 ng/µL) | PA01P2B10 (antibody, V domains shown, subject PA01; also called Clone PA01P2B10) VH: QVQLQQWGAGLLKPSETLSLTCGVHGGSLNNYYWSWIRQPPGKGLEWIGEVYHSGSINYNPSLKSRVTMSVDTSKNQFSFNLSSVTAADTAVYYCARGAYDSRGFWTLDAFNTWGQGTMVIVSS VL: DIQMTQSPSALSASLGDRVTITCRASESINSWLAWYQQKPGKAPKLLIYKASTLESGVPSRFSGSGSGTEFTLTISSLQPDDFATYYCHQYNRYSYTFGQGTKLDIK
no binding (tested: 2 ng/µL) | PA01P2D09 (antibody, human IgG1, V domains shown, also called PA1P2D09) VH: EVQLLESGGGLVQPGGSLRLSCAVSGLKFSSYAMSWVRQAPGKGLEWVSVVSGSSGSTFYAVSVEGRFSISRDNSNNMLYMDMHSLRVEDTAKYYCAKVVGWYYDRNGNRRPKGFRAFDVWGQGTMVIVSS VL: QSVLTQPPSASGTPGQRITIACSGTTSNIGGNSVNWYQQFPGAAPRLLIFDYDQRPSGVPARFSGSSSGSSGYLAISGLQSEDEADYYCSSWDDNLNGWVFGGGTKLTVL
no binding (tested: 2 ng/µL) | PA01P2B03 (antibody, V domains shown, subject PA01; also called Clone PA01P2B03) VH: EVQLVQSGAEVKKPGESLKISCKGSGYNFTSSWIGWVRQMPGKGLEWMGIIHPGDSDTRYSPSFQGQVTISADKSLTTAFLQWSSLKTSDTAIYYCARHGSTMLWGDAFDIWGQGTMVTVSS VL: SYELTQPPSVSLSPGQTARITCSGDALPKHYAYWYQQKPGQAPVLVIYKDTERPSGIPERFSGSSSGTTVTLTISGVQAEDEADYYCQSSDSTGEVFGGGTKLTVL
no binding (tested: 2 ng/µL) | PA01P3E08 (antibody, V domains shown, subject PA01; also called Clone PA01P3E08) VH: QVQLVQSGAEVKKPGASVKVSCKASGYTFIRYDIHWVRQATGQGLEWMGWMNPNNGKSGFAQKFEGRVTLTRNTSVTSTYMQLSSLGLEDTAVYYCVRAGYSYGWGFDYWGQGSLVTVSS VL: NFTLTQPHSVSGSPGKTVTISCTRSSGGIASSHVQWYQQRPASAPTTLIFEDDQRSSGVPDRFSGSIDTSSNSAYLTISGLEAEDEADYYCQSYDNSMWVFGGGSKVTVL
no binding (tested: 2 ng/µL) | PA01P2E10 (antibody, V domains shown, subject PA01; also called Clone PA01P2E10) VH: QVQLVQSGAEVKKPGASVKVSCKASGYTFTTYGISWVRQAPGQGLEWMGWISAYNGNTTYAQNFHARVTMTTDTSTSTAYMELRSLRSDDTAVYFCARTSARTITIFGVLIPAGLNLDYWGQGTLVTVSS VL: QSALTQPASVSGSPGQSITISCTGTGSDVGRYNYVSWYQQHPGKAPKFMIYDVSNRPSGVSNRFSASKSGNTASLTISGLQAEDEADYYCSSYTSTSTLVFGGGTKLTVL
